These results are taken from patent US20250388666A1 (BRIGHAM AND WOMEN S HOSPITAL, published 2025).

Values joined by “and” are separate entries in the source; they are usually repeats but may differ in a detail not shown here. Identical values can stand only once.

The assay concerns the target T1, CEACAM1 (Sino Biological) (human, UniProt P13688 35-428, limits assumed).
T1 construct: may be the same as CEACAM1-HIS; also called hCEACAM1; biotinylated soluble CEACAM1
T1 sequence: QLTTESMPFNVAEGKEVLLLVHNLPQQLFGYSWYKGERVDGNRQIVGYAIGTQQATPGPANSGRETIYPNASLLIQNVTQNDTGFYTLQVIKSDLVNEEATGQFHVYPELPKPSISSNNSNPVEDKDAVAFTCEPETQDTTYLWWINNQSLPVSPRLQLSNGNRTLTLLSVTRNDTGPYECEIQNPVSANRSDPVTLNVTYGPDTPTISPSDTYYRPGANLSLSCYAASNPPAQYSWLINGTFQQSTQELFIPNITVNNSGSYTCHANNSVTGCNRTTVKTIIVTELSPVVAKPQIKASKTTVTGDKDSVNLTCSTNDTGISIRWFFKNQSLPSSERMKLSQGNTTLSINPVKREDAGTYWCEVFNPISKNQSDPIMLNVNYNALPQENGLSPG
The experiment in a line: SPR single-cycle. The essentials: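 Humanized affinity-matured IgGs from crude supernatants captured on Protein A to ~100 RU, with CEACAM1 analyte injected at 25–100 nM (three-point, two-fold) in HBS-P+ without regeneration. 200 s association per injection, 300 s single dissociation; reference-channel and blank subtracted.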

B1: He9/L20 (antibody, IgG4, V domains shown)
VH: EVQLLESGGGLVQPGGSLRLSCAASGFSFSDYYLYWVRQAPGKGLEWVATISVGGGQTSYADSVKGRFTISRDNSKNTLYLQMNSLRAEDTAMYYCARAMYYGPAWFAYWGQGTLVTVSS
VL: DIVMTQSPDSLAVSLGERATINCKSSQSLLNSANQKNYLAWYQQKPGQPPKLLIYFASTRESGVPDRFSGSGSGTDFTLTISSLQAEDVAVYYCQSHFPYPLTFGGGTKVEIK
notes: IgG4 S241P, kappa
Broadly, the Kd is the free concentration of one partner at which half of the binding sites on the other are occupied at equilibrium, for simple one-to-one binding. Higher therefore signals weaker binding. On to B1, for which the Kd turned out to be 44 nM and the “fold better than Parent (KD)” value stood at 3.61 fold.

B2: He13/L4#2 (antibody, IgG4, V domains shown)
VH: EVQLLESGGGLVQPGGSLRLSCAASGFSFSDYYLYWVRQAPGKGLEWVATISVGGGQTSYADSVKGRFTISRDNSKNTLYLQMNSLRAEDTAMYYCTRGLYYGPSWLAYWGQGTLVTVSS
VL: DIVMTQSPDSLAVSLGERATINCKSSQSLLNSANQKNYLAWYQQKPGQPPKLLIYFASTRESGVPDRFSGSGSGTDFTLTISSLQAEDVAVYYCQSHYPYPYTFGGGTKVEIK
notes: IgG4 S241P, kappa
Regarding B2, binding was put at a Kd of 289 nM and the “fold better than Parent (KD)” value was 1.91 fold.

B3: He13/L20 (antibody, IgG4, V domains shown)
VH: EVQLLESGGGLVQPGGSLRLSCAASGFSFSDYYLYWVRQAPGKGLEWVATISVGGGQTSYADSVKGRFTISRDNSKNTLYLQMNSLRAEDTAMYYCTRGLYYGPSWLAYWGQGTLVTVSS
VL: DIVMTQSPDSLAVSLGERATINCKSSQSLLNSANQKNYLAWYQQKPGQPPKLLIYFASTRESGVPDRFSGSGSGTDFTLTISSLQAEDVAVYYCQSHFPYPLTFGGGTKVEIK
notes: IgG4 S241P, kappa
For the molecule B3, the Kd came out at 109 nM and the “fold better than Parent (KD)” value turned out to be 1.46 fold.

B4: He13/L17 (antibody, IgG4, V domains shown)
VH: EVQLLESGGGLVQPGGSLRLSCAASGFSFSDYYLYWVRQAPGKGLEWVATISVGGGQTSYADSVKGRFTISRDNSKNTLYLQMNSLRAEDTAMYYCTRGLYYGPSWLAYWGQGTLVTVSS
VL: DIVMTQSPDSLAVSLGERATINCKSSQSLLNSANQKNYLAWYQQKPGQPPKLLIYFASTRESGVPDRFSGSGSGTDFTLTISSLQAEDVAVYYCQSHYPYPYTFGGGTKVEIK
notes: IgG4 S241P, kappa
For the molecule B4, the Kd was 372 nM and 159 nM.

B5: He9/Parent VL (antibody, IgG4, V domains shown)
VH: EVQLLESGGGLVQPGGSLRLSCAASGFSFSDYYLYWVRQAPGKGLEWVATISVGGGQTSYADSVKGRFTISRDNSKNTLYLQMNSLRAEDTAMYYCARAMYYGPAWFAYWGQGTLVTVSS
VL: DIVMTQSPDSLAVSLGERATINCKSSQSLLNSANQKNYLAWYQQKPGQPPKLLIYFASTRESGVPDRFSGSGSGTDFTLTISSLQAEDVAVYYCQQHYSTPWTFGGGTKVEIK
notes: IgG4 S241P, kappa
Turning to B5, the Kd worked out at 262 nM and the “fold better than Parent (KD)” value worked out at 0.61 fold.

B6: He13/Parent VL (antibody, IgG4, V domains shown)
VH: EVQLLESGGGLVQPGGSLRLSCAASGFSFSDYYLYWVRQAPGKGLEWVATISVGGGQTSYADSVKGRFTISRDNSKNTLYLQMNSLRAEDTAMYYCTRGLYYGPSWLAYWGQGTLVTVSS
VL: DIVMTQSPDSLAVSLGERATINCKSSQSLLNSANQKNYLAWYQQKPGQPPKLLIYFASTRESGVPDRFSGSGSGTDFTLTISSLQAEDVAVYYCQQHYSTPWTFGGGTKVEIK
notes: IgG4 S241P, kappa
As for B6, the Kd amounted to 91 nM and the “fold better than Parent (KD)” value was 1.74 fold.

B7: He13/L16 (antibody, IgG4, V domains shown)
VH: EVQLLESGGGLVQPGGSLRLSCAASGFSFSDYYLYWVRQAPGKGLEWVATISVGGGQTSYADSVKGRFTISRDNSKNTLYLQMNSLRAEDTAMYYCTRGLYYGPSWLAYWGQGTLVTVSS
VL: DIVMTQSPDSLAVSLGERATINCKSSQSLLNSANQKNYLAWYQQKPGQPPKLLIYFASTRESGVPDRFSGSGSGTDFTLTISSLQAEDVAVYYCQSHYPYPFTFGGGTKVEIK
notes: IgG4 S241P, kappa
Take B7: the Kd is 105 nM and the “fold better than Parent (KD)” value is 1.51 fold.

B8: He14/L2 (antibody, IgG4, V domains shown)
VH: EVQLLESGGGLVQPGGSLRLSCAASGFSFSDYYLYWVRQAPGKGLEWVATISVGGGQTSYADSVKGRFTISRDNSKNTLYLQMNSLRAEDTAMYYCTRGLYYGPSWVAYWGQGTLVTVSS
VL: DIVMTQSPDSLAVSLGERATINCKSSQSLLNSANQKNYLAWYQQKPGQPPKLLIYFASTRESGVPDRFSGSGSGTDFTLTISSLQAEDVAVYYCQSHYPFPYTFGGGTKVEIK
notes: IgG4 S241P, kappa
As to B8, the Kd is 102 nM and the “fold better than Parent (KD)” value was found to be 1.56 fold.

B9: He13/L19 (antibody, IgG4, V domains shown)
VH: EVQLLESGGGLVQPGGSLRLSCAASGFSFSDYYLYWVRQAPGKGLEWVATISVGGGQTSYADSVKGRFTISRDNSKNTLYLQMNSLRAEDTAMYYCTRGLYYGPSWLAYWGQGTLVTVSS
VL: DIVMTQSPDSLAVSLGERATINCKSSQSLLNSANQKNYLAWYQQKPGQPPKLLIYFASTRESGVPDRFSGSGSGTDFTLTISSLQAEDVAVYYCQSHIYPNFTFGGGTKVEIK
notes: IgG4 S241P, kappa
As for B9, the Kd was found to be 129 nM and the “fold better than Parent (KD)” value turned out to be 1.23 fold.

B10: He13/L1 (antibody, IgG4, V domains shown)
VH: EVQLLESGGGLVQPGGSLRLSCAASGFSFSDYYLYWVRQAPGKGLEWVATISVGGGQTSYADSVKGRFTISRDNSKNTLYLQMNSLRAEDTAMYYCTRGLYYGPSWLAYWGQGTLVTVSS
VL: DIVMTQSPDSLAVSLGERATINCKSSQSLLNSANQKNYLAWYQQKPGQPPKLLIYFASTRESGVPDRFSGSGSGTDFTLTISSLQAEDVAVYYCQSHYPFYYTFGGGTKVEIK
notes: IgG4 S241P, kappa
With B10, binding was put at a Kd of 126 nM and the “fold better than Parent (KD)” value was 1.26 fold.

B11: He14/L3 (antibody, IgG4, V domains shown)
VH: EVQLLESGGGLVQPGGSLRLSCAASGFSFSDYYLYWVRQAPGKGLEWVATISVGGGQTSYADSVKGRFTISRDNSKNTLYLQMNSLRAEDTAMYYCTRGLYYGPSWVAYWGQGTLVTVSS
VL: DIVMTQSPDSLAVSLGERATINCKSSQSLLNSANQKNYLAWYQQKPGQPPKLLIYFASTRESGVPDRFSGSGSGTDFTLTISSLQAEDVAVYYCQSHFPFPFTFGGGTKVEIK
notes: IgG4 S241P, kappa
Consider B11, for which binding was put at a Kd of 107 nM and the “fold better than Parent (KD)” value is 1.49 fold.

B12: He13/L2 (antibody, IgG4, V domains shown)
VH: EVQLLESGGGLVQPGGSLRLSCAASGFSFSDYYLYWVRQAPGKGLEWVATISVGGGQTSYADSVKGRFTISRDNSKNTLYLQMNSLRAEDTAMYYCTRGLYYGPSWLAYWGQGTLVTVSS
VL: DIVMTQSPDSLAVSLGERATINCKSSQSLLNSANQKNYLAWYQQKPGQPPKLLIYFASTRESGVPDRFSGSGSGTDFTLTISSLQAEDVAVYYCQSHYPFPYTFGGGTKVEIK
notes: IgG4 S241P, kappa
Consider B12, for which the Kd was 98 nM and the “fold better than Parent (KD)” value worked out at 1.62 fold.

B13: He13/L3 (antibody, IgG4, V domains shown)
VH: EVQLLESGGGLVQPGGSLRLSCAASGFSFSDYYLYWVRQAPGKGLEWVATISVGGGQTSYADSVKGRFTISRDNSKNTLYLQMNSLRAEDTAMYYCTRGLYYGPSWLAYWGQGTLVTVSS
VL: DIVMTQSPDSLAVSLGERATINCKSSQSLLNSANQKNYLAWYQQKPGQPPKLLIYFASTRESGVPDRFSGSGSGTDFTLTISSLQAEDVAVYYCQSHFPFPFTFGGGTKVEIK
notes: IgG4 S241P, kappa
Turning to B13, the Kd worked out at 108 nM and the “fold better than Parent (KD)” value is 1.47 fold.

B14: He13/L18 (antibody, IgG4, V domains shown)
VH: EVQLLESGGGLVQPGGSLRLSCAASGFSFSDYYLYWVRQAPGKGLEWVATISVGGGQTSYADSVKGRFTISRDNSKNTLYLQMNSLRAEDTAMYYCTRGLYYGPSWLAYWGQGTLVTVSS
VL: DIVMTQSPDSLAVSLGERATINCKSSQSLLNSANQKNYLAWYQQKPGQPPKLLIYFASTRESGVPDRFSGSGSGTDFTLTISSLQAEDVAVYYCQSHFPYPFTFGGGTKVEIK
notes: IgG4 S241P, kappa
On to B14, for which binding was characterised by a dissociation constant (Kd) of 103 nM and the “fold better than Parent (KD)” value worked out at 1.54 fold.

B15: He14/L4 #1 (antibody, IgG4, V domains shown)
VH: EVQLLESGGGLVQPGGSLRLSCAASGFSFSDYYLYWVRQAPGKGLEWVATISVGGGQTSYADSVKGRFTISRDNSKNTLYLQMNSLRAEDTAMYYCTRGLYYGPSWVAYWGQGTLVTVSS
VL: DIVMTQSPDSLAVSLGERATINCKSSQSLLNSANQKNYLAWYQQKPGQPPKLLIYFASTRESGVPDRFSGSGSGTDFTLTISSLQAEDVAVYYCQSHFPYYYTFGGGTKVEIK
notes: IgG4 S241P, kappa
As to B15, the Kd was 93 nM and the “fold better than Parent (KD)” value was found to be 1.7 fold.

B16: He13/L6 (antibody, IgG4, V domains shown)
VH: EVQLLESGGGLVQPGGSLRLSCAASGFSFSDYYLYWVRQAPGKGLEWVATISVGGGQTSYADSVKGRFTISRDNSKNTLYLQMNSLRAEDTAMYYCTRGLYYGPSWLAYWGQGTLVTVSS
VL: DIVMTQSPDSLAVSLGERATINCKSSQSLLNSANQKNYLAWYQQKPGQPPKLLIYFASTRESGVPDRFSGSGSGTDFTLTISSLQAEDVAVYYCQSHYPFSFTFGGGTKVEIK
notes: IgG4 S241P, kappa
Turning to B16, binding was put at a Kd of 105 nM and the “fold better than Parent (KD)” value came out at 1.51 fold.

B17: He13/L5 (antibody, IgG4, V domains shown)
VH: EVQLLESGGGLVQPGGSLRLSCAASGFSFSDYYLYWVRQAPGKGLEWVATISVGGGQTSYADSVKGRFTISRDNSKNTLYLQMNSLRAEDTAMYYCTRGLYYGPSWLAYWGQGTLVTVSS
VL: DIVMTQSPDSLAVSLGERATINCKSSQSLLNSANQKNYLAWYQQKPGQPPKLLIYFASTRESGVPDRFSGSGSGTDFTLTISSLQAEDVAVYYCQSHYPFAFTFGGGTKVEIK
notes: IgG4 S241P, kappa
For B17, binding was characterised by a dissociation constant (Kd) of 95 nM and the “fold better than Parent (KD)” value was determined as 1.68 fold.

B18: He13/L4 #1 (antibody, IgG4, V domains shown)
VH: EVQLLESGGGLVQPGGSLRLSCAASGFSFSDYYLYWVRQAPGKGLEWVATISVGGGQTSYADSVKGRFTISRDNSKNTLYLQMNSLRAEDTAMYYCTRGLYYGPSWLAYWGQGTLVTVSS
VL: DIVMTQSPDSLAVSLGERATINCKSSQSLLNSANQKNYLAWYQQKPGQPPKLLIYFASTRESGVPDRFSGSGSGTDFTLTISSLQAEDVAVYYCQSHFPYYYTFGGGTKVEIK
notes: IgG4 S241P, kappa
Regarding B18, the Kd was 115 nM and the “fold better than Parent (KD)” value is 1.38 fold.
